Data as given in patent publication US5352772A, “75 Kilodalton interleukin-2 receptor proteins and their uses” (The Trustees of Dartmouth College, priority 1986, dated 1994).

Assay: IL-2 binding affinity of the separate receptor chains
Design: species or system human
Conditions: read-out: Kd of the chain for IL-2; each chain expressed separately
Procedure: Monoclonal antibodies reactive with the Tac epitope were made available by Dr. Ellis Reinherz (1HT4; IgG2a Dana-Farber Cancer Center, Boston Mass.). IL-2 and anti-Tac ware radioiodinated using lactoperoxidase-glucose oxidase (Enzymobeads, Biorad, Richmond, Calif.) according to the manufacturer's instructions. The specific activity of anti-Tac was 5.3×10^4 CPM/pmole. […] Binding of both ligands to whole cells was performed, as described in Robb et al., Vol 154 J. Exp. Med., p. […] After 20-min incubation at 37° C., the tubes were centrifuged (8,500×g, 80s), the tips of the tubes containing the cell pellet were severed and the cell-bound and free radioactivity were determined by solid scintillation counting. The calculated values for the number of binding sites per cell were derived by Scatchard analysis of equilibrium binding data after subtraction of nonspecific binding determined in the presence of 150-fold molar excess of unlabeled ligand. […]
Particularly convincing in this regard is the finding that the chain present in limiting amounts dictates the number of high affinity receptors, and either α or β chains can function in this role. […] In contrast, YT cells express […] in excess, and high affinity receptors are detected only when the cells are induced to express β chains.

- Kd: 10 nM
B1: β chain: previously isolated 55,000 dalton IL-2 receptor protein bearing the Tac epitope (protein, UniProt P01589 22-272, looked up)
Interleukin-2 receptor …: ELCDDDPPEIPHATFKAMAYKEGTMLNCECKRGFRRIKSGSLYMLCTGNSSHSSWDNQCQCTSSATRNTTKQVTPQPEEQKERKTTEMQSPMQPVDQASLPGHCREPPPWENEATERIYHFVVGQMVYYQCVQGYRALHRGPAESVCKMTHGKTRWTQPQLICTGEMETSQFPGEEKPQASPEGRPESETSCLVTTTDFQIQTEMAATMETSIFTTEYQVAVAGCVFLLISVLLLSGLTWQRRQRKSRRTI
